Measurements taken from PMC5961942.

Target: trimeric PD-L1 trap (mouse) (UniProt Q02242)
Assay: SDS-PAGE without reducing agent

Work on “trimeric PD-L1 trap (from UniProt Q02242 21-150; P51942 458-500) (designed binder)” yielded a stoichiometry N of 3.
